Source: patent publication CN115197317A (ANYUAN PHARMACEUTICAL TECH SHANGHAI CO LTD, dated 2022)

B1: 鼠源抗体ST-35-4 (antibody, V domains shown)
VH: QVQLQQPGAELVRPGASMKLSCKTSGYTFTTYTIHWIKQTPGQGLEWIGAVNPGNGDTSYSQKFKGRAILTADKSSNTASMQFSSLTSEDSAVYYCARDGYPYFYALDSWGQGTSVTVSS
VL: DIQMTQSPSSLSASLGERVSLTCRAGQEISSYLTWLQQKPDGTIKRLIYAASTLDSGVPKRFSGSRSGSDYSLTINSLESEDFADYYCLQYASYPWTFGGGTKVEIK
B2: 人源化抗体hST-10-4 (antibody, V domains shown)
VH: EVTLKESGPALVKPTQTLTLTCTFSGFSLDSSNMGVSWIRQPPGKGLEWLAHIYWGDDNRYNPSLKSRLTVSKDTSKNQVVLTMTNMEPVDTATYYCARKWNWDWFPYWGQGTTVTVSS
VL: DIVLTQSPDSLAVSLGERATINCRASKSVSASGYSFMHWYQQKPGQPPKLLISLASNLESGVPARFSGSGSGTDFTLTISRLQAEDVAVYYCQHSRELPLTFGAGTKLEIKR
B3: 人源化抗体hST-35-4 (antibody, V domains shown)
VH: EVQLVQSGAEVKKPGSSVKVSCKTSGYTFTTYTIHWIRQAPGQGLEWIGAVNPGNADTSYSQKFKGRATLTADKSSNTAYMELSSLRSEDTAVYYCARDAYPYFYALDSWGQGTTVTVSS
VL: DIQMTQSPSSLSASVGDRVTITCRAGQEISSYLTWLQQKPEGTIKRLIYAASTLDSGVPKRFSGSRSGSDYTLTISSLQPEDFATYYCLQYASYPWTFGGGTKVEIKR
B4: 鼠源抗体ST-10-4 (antibody, V domains shown)
VH: QVTLKESGPGILQPSQTLTLTCSFSGFSLDSSNMGVSWIRQTSGKGLEWLAHIYWGDDNRYNPSLKSRLTVSKDTSSNQVFLKLTNVDTADTATYYCARKWNWDWFPYWGQGTLVTVSA
VL: DIVLTQSPTSLPVSLGQRATISCRASKSVSASGYSFMHWYQQKPGQPPKLLISLASNLESGVPARFSGSGSGTDFTLNIHPVEEEDAATYYCQHSRELPLTFGAGTKLELK

Legend:
[1] = biological target: 刺突S-鼠Fc融合蛋白 (S-mFc) (SARS-CoV-2; mouse, UniProt P0DTC2 14-1213)
[2] = biological target: T1, SARS-CoV-2 S蛋白 (ACRO Biosystems, coated in ELISA 7.1) (SARS-CoV-2, UniProt P0DTC2 16-1213); test: indirect ELISA, S protein coated at 0.1 μg/mL
T1 construct: also called SARS-CoV S蛋白(ACRO Biosystems)

[3] = biological target: SARS-CoV-2 S蛋白(His标签) (SARS-CoV-2, UniProt P0DTC2 16-1213); test: competition ELISA, S protein (His tag) coated, HRP-hACE2-Fc as competitor

Binder | IC50 [1] [mg/L] | EC50 [2] [mg/L] | IC50 [3] [mg/L]
B1 | 0.0118 | – | –
B2 | 0.0123 | 0.0023 | 0.257
B3 | 0.0163 | 0.0018 | 0.194
B4 | 0.0165 | – | –
